Laboratory results taken from paper PMC12350152 (Nature Structural & Molecular Biology, 2025).

T1: Pfs48/45 fragment containing D3 (ELISA antigen) (Plasmodium falciparum, strain not …)
T1 chain: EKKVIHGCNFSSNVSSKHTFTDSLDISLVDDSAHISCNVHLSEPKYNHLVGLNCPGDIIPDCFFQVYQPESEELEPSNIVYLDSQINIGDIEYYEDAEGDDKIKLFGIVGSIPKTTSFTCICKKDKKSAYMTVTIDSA


Tests used:
[1] = target: Pfs48/45 D1D2 (domains 1 and 2, aa 27–294), native sequence (Plasmodium falciparum (isolate 3D7)., UniProt Q8I6T1); experiment: BLI
[2] = target: recombinant full-length Pfs48/45 (ELISA antigen) (Plasmodium falciparum, strain not …, UniProt Q8I6T1); experiment: ELISA
Sequence of recombinant full-length Pfs48/45 (ELISA antigen) (Q8I6T1 28-426): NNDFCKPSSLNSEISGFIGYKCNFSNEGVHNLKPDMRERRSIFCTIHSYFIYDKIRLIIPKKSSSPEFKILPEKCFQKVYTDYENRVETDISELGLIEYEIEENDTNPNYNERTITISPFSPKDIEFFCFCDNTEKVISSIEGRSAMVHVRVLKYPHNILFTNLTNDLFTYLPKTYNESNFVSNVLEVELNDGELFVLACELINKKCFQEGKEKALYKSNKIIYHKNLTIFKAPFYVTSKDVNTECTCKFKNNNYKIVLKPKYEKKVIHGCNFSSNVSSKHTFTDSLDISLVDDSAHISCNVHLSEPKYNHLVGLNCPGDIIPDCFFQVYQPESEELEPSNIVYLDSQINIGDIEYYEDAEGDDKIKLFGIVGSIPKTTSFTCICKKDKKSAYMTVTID

[3] = target: T1, Pfs48/45 fragment containing D3 (ELISA …); experiment: ELISA
[4] = target: Pfs48/45 on live female Pf NF54 gametes (Plasmodium falciparum NF54 (3D7 is its …, UniProt Q8I6T1)); experiment: flow cytometry on cells
Sequence of Pfs48/45 on live female Pf NF54 gametes (Plasmodium falciparum NF54 (Q8I6T1 28-426): as above

Sequence of Pfs48/45 D1D2 (domains 1 and 2, aa 27–294), native sequence (Q8I6T1 27-294): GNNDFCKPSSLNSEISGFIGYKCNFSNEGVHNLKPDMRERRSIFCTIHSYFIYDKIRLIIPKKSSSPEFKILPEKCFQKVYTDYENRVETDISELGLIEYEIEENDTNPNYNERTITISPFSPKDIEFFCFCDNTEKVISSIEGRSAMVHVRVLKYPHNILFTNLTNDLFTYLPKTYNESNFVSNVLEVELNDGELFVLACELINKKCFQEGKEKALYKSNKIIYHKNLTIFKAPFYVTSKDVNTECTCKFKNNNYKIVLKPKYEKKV

binding result [1]	binding result [2]	binding result [3]	binding result [4]	Binder
binds	–	–	–	10D8 Fab (Fab, V domains shown) VH: EVMLVESGGDLVKPGGSLKVSCAASGFTFSNYAMSWVRQTPEKRLEWVATISSGASYTHYPDSVKGRFTISRDNAKNTLYLQMSSLRSEDTAMYYCGRQVNRHDRALDAMDYWGQGTSVTVSP VL: not shown
–	binds	binds	binds	RUPA-44 mAb (IgG) (antibody, V domains shown) VH: QLQLQESGPGLVKPSETLSLTCTVSGGSISRSPYYWGWIRQPPGKGLEWFGSIYNNGSTYYNPPLKSRLTISVDTSKNQFSLKLSSVTAADTAVYYCARHGGSTGMKVVVIAPPDYWGQGTLVTVSS VL: DIQMTQSPATLSASVGDRVTITCRASQSISSWLAWYQQKPGEAPKLLIYKASSLQSGVPSRFSGSGSGTKFSLTISSLQPDDFATFYCQQYHSYPYTFGQGTKLEIK
